Data: article doi:10.1101/2025.02.18.638599

Molecular target: AcrA S273C (Escherichia coli) (UniProt P0AE06)
Experiment: cryo-EM structure

For “AcrA S273C (from UniProt P0AE06 25-397) (natural protein)”, which stoichiometry N is on record?
The stoichiometry N was 6.
